This note sets out measurements from patent US20110143953A1 (ARIZONA BOARD OF REGENTS A BODY CORPORATE OF THE STATE OF …, published 2011).

One assay has as its target T1, transferrin (UniProt P02787 20-698, randomly labelled at free amines with Alexa 555 in the peptide array screen; amine-coupled to the chip in SPR).
T1 construct: also called TRF
Put plainly: SPR (Biacore T100), transferrin immobilized, steady-state response. A general note: In SPR one partner is held on a chip, and binding of the other changes the refractive index at the surface.

The target in assay [1] is T2, Gal80 (UniProt P04387 1-435, limits assumed, labelled with Cy3 or Cy5 in the peptide array screen).
T2 sequence (looked up): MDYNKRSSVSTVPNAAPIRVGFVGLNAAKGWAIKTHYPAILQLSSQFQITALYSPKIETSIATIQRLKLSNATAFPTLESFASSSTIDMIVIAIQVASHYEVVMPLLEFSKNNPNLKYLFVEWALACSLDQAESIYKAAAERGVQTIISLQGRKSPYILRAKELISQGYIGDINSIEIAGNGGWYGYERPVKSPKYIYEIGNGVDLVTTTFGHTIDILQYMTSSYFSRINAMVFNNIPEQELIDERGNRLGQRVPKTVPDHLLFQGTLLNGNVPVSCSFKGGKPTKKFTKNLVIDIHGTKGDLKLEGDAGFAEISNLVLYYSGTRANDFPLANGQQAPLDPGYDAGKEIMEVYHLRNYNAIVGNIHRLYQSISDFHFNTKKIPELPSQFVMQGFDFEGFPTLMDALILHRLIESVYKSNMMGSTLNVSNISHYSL
Put plainly: SPR, gal80 immobilised on the chip, Kd from on and off rates.

In assay [2] the target is T2, Gal80. Put plainly: SPR, synbody in solution (1 µM to 7.81 nM) on surface-bound Gal80; SPR, synbody in solution, surface-bound Gal80.
Assay [3] has as its target T2, Gal80. Put plainly: gel shift assay; gel shift assay. (Mobility shift assays separate free from complexed probe on a gel.)

T1 sequence (P02787 20-698 limits assumed): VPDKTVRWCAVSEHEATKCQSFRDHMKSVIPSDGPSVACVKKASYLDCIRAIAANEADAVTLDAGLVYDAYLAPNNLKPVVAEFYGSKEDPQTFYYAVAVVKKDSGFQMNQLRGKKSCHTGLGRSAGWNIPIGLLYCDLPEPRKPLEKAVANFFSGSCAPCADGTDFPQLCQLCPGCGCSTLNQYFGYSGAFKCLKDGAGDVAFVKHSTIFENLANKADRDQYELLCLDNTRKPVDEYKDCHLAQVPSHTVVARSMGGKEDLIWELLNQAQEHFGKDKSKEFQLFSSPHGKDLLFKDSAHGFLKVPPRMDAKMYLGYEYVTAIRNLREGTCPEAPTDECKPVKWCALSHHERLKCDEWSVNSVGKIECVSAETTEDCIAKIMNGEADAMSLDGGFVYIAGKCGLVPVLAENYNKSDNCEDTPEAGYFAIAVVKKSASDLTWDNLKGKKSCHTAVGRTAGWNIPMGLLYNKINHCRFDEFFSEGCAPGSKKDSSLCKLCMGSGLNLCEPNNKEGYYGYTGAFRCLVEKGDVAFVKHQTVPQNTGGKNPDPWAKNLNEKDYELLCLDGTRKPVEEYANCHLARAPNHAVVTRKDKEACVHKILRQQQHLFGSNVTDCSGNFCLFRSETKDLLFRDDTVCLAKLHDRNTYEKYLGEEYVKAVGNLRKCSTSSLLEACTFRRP
Excerpt for transferrin: Flow rates and contact times are adjusted as necessary to provide the surface concentration of target desired for the intended application, and may vary by target. In general, for evaluating whether binding occurs, it is preferable to immobilize a relatively large quantity of target, and higher flow rates and/or longer contact times may be used. For determining kinetics, it is preferable to limit the amount of target immobilized so as to minimize rebinding and avidity effects, and lower flow rates and/or contact times may be used.
Candidate affinity elements for the transferrin synbody TRF19, TRF21, TRF23, TRF24, TRF25, and TRF26 were individually evaluated for solution phase KD with respect to transferrin by SPR analysis. […] For each experiment, response data were processed using a reference surface to correct for bulk refractive index changes and any non-specific binding. Data were also double referenced using responses from blank running buffer injections.

B1: TRF23 (peptide)
peptide: FRGWAHIFFGPHVIYRGGSC
notes: 20-mer random peptide
Regarding B1, in the assay with transferrin, the dissociation constant Kd (as a rule, the concentration at which binding is half-saturated) was about 50 µM.

B2: TRF21 (peptide)
peptide: QYHHFMNLKRQGRAQAYGSC
notes: 20-mer random peptide
For the molecule B2, the equilibrium dissociation constant (Kd) with transferrin is about 60 µM.

B3: TRF26 (peptide)
peptide: AHKVVPQRQIRHAYNRYGSC
notes: 20-mer random peptide
With B3, in the assay with transferrin, the Kd was about 100 µM.

B4: BP1 on dsDNA (peptide)
peptide: GTEKGTSGWLKTGSC
modifications: chain 1 pos 15: Cys thiol joined via SMCC maleimide to an amine-modified cytosine of the double-stranded DNA linker. The DNA cannot be carried by the letters.
notes: also called BP1 complexed by itself to the double-stranded DNA linker
In the assay with Gal80 [1], B4 displayed an equilibrium dissociation constant (Kd) of 0.482 µM.

B5: TRF25 (peptide)
peptide: APYAPQQIHYWSTLGFKGSC
notes: 20-mer random peptide
Molecule B5 yielded a dissociation constant Kd in the assay with transferrin of about 60 µM.

B6: linker-optimized BP1/BP2 DNA-linked synbody (BP1 on the template strand, BP2 at position 13 from the 3' end of the variable strand) (designed binder)
peptide 1: GTEKGTSGWLKTGSC
peptide 2: EGEWTEGKLSLRGSC
modifications: not fully specified; C-terminal cysteine conjugated through SMCC to the amine-modified cytosine at position 13 from the 3' end of the DNA variable strand (SEQ ID NO: 15); C-terminal cysteine conjugated through SMCC to the amine-modified 5' terminal cytosine of the DNA template strand (SEQ ID NO: 14)
notes: The two peptides are held about 5 nm apart by a double-stranded DNA linker; also called Gal80 synbody; gal80 synbody
Take B6: the values for the Kd in the assay with Gal80 [2] and with Gal80 [3] were 0.091 µM and about 0.1 µM, respectively.

B7: BP2 on dsDNA (peptide)
peptide: EGEWTEGKLSLRGSC
modifications: chain 1 pos 15: Cys thiol joined via SMCC maleimide to an amine-modified cytosine of the double-stranded DNA linker. The DNA cannot be carried by the letters.
notes: also called BP2 complexed by itself to the double-stranded DNA linker
The molecule B7 returned a dissociation constant (Kd) in the assay with Gal80 [1] of 0.982 µM.

B8: TRF24 (peptide)
peptide: SVKPWRPLLTGNRWLNSGSC
Consider B8, for which the Kd with transferrin is about 50 µM.

B9: TRF19 (peptide)
peptide: KEDNPGYSSEQDYNKLDGSC
notes: 20-mer random peptide; on the array it is attached by its C-terminal cysteine to the surface
With B9, in the assay with transferrin, the Kd was about 150 µM.
